One data set has as its system A549 cells. Put plainly: MTT cell viability, A549. The class given is cell-based, human. Particulars: AChE-ID media, 48 h, A549; Fig. 7A. As to the method:
Human NSCLC cell lines, A549 (ATCC CCL‐185) and H1299 (ATCC CRL‐5803), were purchased from the American Type Culture Collection (ATCC, Manassas, VA, USA). Cells were seeded as we reported earlier in 5 mL HyClone Dulbecco's modified Eagle's medium/nutrient mixture F‐12 (DMEM/F12) (GE Healthcare Life Sciences, Pittsburgh, PA, USA), supplemented with 10% Fetalgro bovine growth serum (FBS; RMBIO, Missoula, MT, USA), 50 U·mL^−1 penicillin, and […] streptomycin (Invitrogen, Life Technologies, Carlsbad, CA, USA) in 25‐cm^2 tissue culture flasks, and allowed to grow overnight in an incubator at 37 °C, 95% humidity, and 5% CO2. The cells were counted after trypan blue staining, with a hemocytometer.
The 3‐(4,5‐dimethylthiazol‐2‐yl)‐2,5‐diphenyl‐tetrazolium bromide (MTT) reduction assay (Sigma‐Aldrich), used to measure cell viability, was carried out as we reported earlier. […] The absorbance was measured at 570 nm in a plate reader. […]
Conditioned media were immunodepleted (ID) according to the methods previously described and our recently published report. […] The ID media were then carefully removed and analyzed for the presence of the target protein or peptide by ELISA. The same amount of protein (3 µL of 600 µg·mL^−1 total protein) of each sample was analyzed in the experiments. […]

The test system of another data set is Aβ cytotoxicity. Conditions: versus Aβ aggregates alone; cited from earlier work. From the text: Almost all types of cells produce amyloid beta (Aβ), a peptide well recognized for its role in the development and progression of different stages of Alzheimer's disease (AD). The Aβ peptide is ~ 4 kDa and derived from the sequential processing of the higher molecular weight amyloid precursor protein by two membrane‐bound endoproteases, β‐ and γ‐secretase. Different C‐terminal Aβ heterogeneity results from processing by γ‐secretase, where Aβ40 represents the most abundant isoform (~ 90%) as compared to Aβ42 (~ 10%). Self‐assembled Aβ40/42 peptides into amyloid fib ... || Soluble oligomers of proteins implicated in different diseases are primarily thought to be the main toxic form as opposed to the larger fibrillar assemblies. Aβ regions containing Tyr and Ser (H6DSGY10 and G25SNKG29) (Fig. 1) along with post‐translational modifications of these regions, have been implicated in misfolding, oligomerization, or fibril formation of Aβ [5, 10, 11, 16, 41]. […] Aβ proteins a ... || Acetylcholinesterase (AChE) is an enzyme known for its role in terminating acetylcholine‐mediated neurotransmission at the synaptic cleft. The majority of the cortical AChE in the Alzheimer's brain is mainly associated with the amyloid core of senile plaques. […]

B1: acetylcholinesterase (protein)
chain: EGREDAELLVTVRGGRLRGIRLKTPGGPVSAFLGIPFAEPPMGPRRFLPPEPKQPWSGVVDATTFQSVCYQYVDTLYPGFEGTEMWNPNRELSEDCLYLNVWTPYPRPTSPTPVLVWIYGGGFYSGASSLDVYDGRFLVQAERTVLVSMNYRVGAFGFLALPGSREAPGNVGLLDQRLALQWVQENVAAFGGDPTSVTLFGESAGAASVGMHLLSPPSRGLFHRAVLQSGAPNGPWATVGMGEARRRATQLAHLVGCPPGGTGGNDTELVACLRTRPAQVLVNHEWHVLPQESVFRFSFVPVVDGDFLSDTPEALINAGDFHGLQVLVGVVKDEGSYFLVYGAPGFSKDNESLISRAEFLAGVRVGVPQVSDLAAEAVVLHYTDWLHPEDPARLREALSDVVGDHNVVCPVAQLAGRLAAQGARVYAYVFEHRASTLSWPLWMGVPHGYEIEFIFGIPLDPSRNYTAEEKIFAQRLMRYWANFARTGDPNEPRDPKAPQWPPYTAGAQQYVSLDLRPLEVRRGLRAQACAFWNRFLPKLLSATDTLDEAERQWKAEFHRWSSYMVHWKNQFDHYSKQDRCSDL
Turning to B1, the “increase in cell viability upon AChE immunodepletion” value in the data set with A549 cells is ~ 1.45 fold. In addition, the “toxicity of AChE-amyloid complexes” value with Aβ cytotoxicity is given as “Higher toxicity”.

The record behind these values is article PMC7714071, “Interaction of amyloid beta with humanin and acetylcholinesterase is modulated by ATP” (FEBS Open Bio, 2020).
